Test: affinity of cytochrome P450 2B6 protein for CPA
Assay type: biochemical, human
Text: In one particularly advantageous embodiment, said variants and fragments have an affinity for CPA the same as, substantially the same as, or greater than, that of the mutant human cytochrome P450 2B6 protein (CYP2B6*) of SEQ ID No 1.

B1: CYP2B6*: mutant human cytochrome P450 2B6 protein of SEQ ID No. 1 (substitutions I114V, L199M, V477W) (protein, listed as Homo sapiens)
chain: MELSVLLFLALLTGLLLLLVQRHPNTHDRLPPGPRPLPLLGNLLQMDRRGLLKSFLRFREKYGDVFTVHLGPRPVVMLCGVEAIREALVDKAEAFSGRGKIAMVDPFFRGYGVVFANGNRWKVLRRFSVTTMRDFGMGKRSVEERIQEEAQCLIEELRKSKGALMDPTFLFQSITANIICSIVFGKRFHYQDQEFLKMMNLFYQTFSLISSVFGQLFELFSGFLKYFPGAHRQVYKNLQEINAYIGHSVEKHRETLDPSAPKDLIDTYLLHMEKEKSNAHSEFSHQNLNLNTLSLFFAGTETTSTTLRYGFLLMLKYPHVAERVYREIEQVIGPHRPPELHDRAKMPYTEAVIYEIQRFSDLLPMGVPHIVTQHTSFRGYIIPKDTEVFLILSTALHDPHYFEKPDAFNPDHFLDANGALKKTEAFIPFSLGKRICLGEGIARAELFLFFTTILQNFSMASPVAPEDIDLTPQECGWGKIPPTYQIRFLPR
Vmax (compared with CYP2B6 WT): same
affinity for CPA relative to the wild-type protein (CYP2B6 WT) (vs CYP2B6 WT): more than 8 times

From patent publication US20250320461A1, “GENETICALLY MODIFIED HUMAN STEM CELL EXPRESSING A MUTANT HUMAN CYTOCHROME P450 2B6 PROTEIN AND ITS USE THEREOF IN THE TREATMENT OF CANCER” (ASSISTANCE PUBLIQUE-HOPITAUX DE PARIS, priority 2019, published 2025)
